According to paper PMC5636753, “Structural basis for DAXX interaction with ATRX” (Protein & Cell, 2017):
Where two headings read alike, the source gives them in different places.

T1: DAXX helical bundle (DHB) domain, DAXX_(55–144) (UniProt Q9UER7 55-144)
T1 chain: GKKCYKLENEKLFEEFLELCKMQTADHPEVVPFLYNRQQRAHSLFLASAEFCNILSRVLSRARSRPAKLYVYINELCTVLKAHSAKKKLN

T2: DAXX F87A (Homo sapiens)
T2 chain: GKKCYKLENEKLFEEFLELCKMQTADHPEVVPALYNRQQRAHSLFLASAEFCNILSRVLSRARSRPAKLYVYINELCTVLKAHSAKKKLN

T3: DAXX V125A (Homo sapiens)
T3 chain: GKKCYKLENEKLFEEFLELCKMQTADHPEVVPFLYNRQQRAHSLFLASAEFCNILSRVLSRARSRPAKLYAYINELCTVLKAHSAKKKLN

T4: DAXX I127A (Homo sapiens)
T4 chain: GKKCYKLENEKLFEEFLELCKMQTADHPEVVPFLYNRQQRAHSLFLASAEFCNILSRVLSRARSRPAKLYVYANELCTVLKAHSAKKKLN

T5: DAXX Y124A (Homo sapiens)
T5 chain: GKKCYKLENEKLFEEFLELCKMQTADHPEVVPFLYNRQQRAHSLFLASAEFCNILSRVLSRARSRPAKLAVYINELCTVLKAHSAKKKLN

T6: DAXX V84A (Homo sapiens)
T6 chain: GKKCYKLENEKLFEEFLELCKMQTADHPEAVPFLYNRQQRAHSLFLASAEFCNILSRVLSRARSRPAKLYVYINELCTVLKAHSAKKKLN

T7: ATRX_(1,188–1,326) (UniProt P46100 1188-1326)
T7 construct: Alpha-thalassemia/mental retardation syndrome X-linked protein (ATRX), residues 1188-1326
T7 sequence (looked up): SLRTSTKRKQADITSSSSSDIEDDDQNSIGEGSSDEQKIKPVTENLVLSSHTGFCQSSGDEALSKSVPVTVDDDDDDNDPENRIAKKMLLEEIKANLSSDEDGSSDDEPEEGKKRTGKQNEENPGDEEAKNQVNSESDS


What was measured:
[1] = target: T1, DAXX helical bundle (DHB) domain, …; assay: ITC
[2] = target: DAXX helical bundle (DHB) domain, DAXX_(55–144) (UniProt Q9UER7); assay: ITC; isothermal titration calorimetry of ATRX fragments with DAXXDHB; conditions not shown (methods in the supplement)
[3] = target: T1, DAXX helical bundle (DHB) domain, …; assay: ITC
DAXX F87A = target: T2, DAXX F87A; assay: ITC
DAXX V125A = target: T3, DAXX V125A; assay: ITC
DAXX I127A = target: T4, DAXX I127A; assay: ITC
DAXX Y124A = target: T5, DAXX Y124A; assay: ITC
DAXX V84A = target: T6, DAXX V84A; assay: ITC
ATRX_(1,188–1,326) = target: T7, ATRX_(1,188–1,326); assay: ITC; isothermal titration calorimetry of ATRX fragments with DAXXDHB; conditions not shown (methods in the supplement); conditions: both partners purified

Binder	Kd [1]	further results
ENRIAKKMLLEEIKANLSSDED (domain or fragment) [ATRXDBM with deletion of N-terminal eight residues]	10300 nM	fold decrease in affinity against ATRXDBM [2]: 60 fold
ATRX_(1,253–1,326) (domain or fragment) SVPVTVDDDDDDNDPENRIAKKMLLEEIKANLSSDEDGSSDDEPEEGKKRTGKQNEENPGDEEAKNQVNSESDS	160 nM	Kd [3]: 170 nM; Kd (DAXX F87A): 2190 nM; Kd (DAXX V125A): 280 nM; Kd (DAXX I127A): 810 nM; Kd (DAXX Y124A): 5920 nM; Kd (DAXX V84A): 2040 nM
ATRX L1276A/I1280A (protein) SVPVTVDDDDDDNDPENRIAKKMALEEAKANLSSDEDGSSDDEPEEGKKRTGKQNEENPGDEEAKNQVNSESDS	12000 nM	–
ATRX L1276A (protein) SVPVTVDDDDDDNDPENRIAKKMALEEIKANLSSDEDGSSDDEPEEGKKRTGKQNEENPGDEEAKNQVNSESDS	8330 nM	–
AAAAANDPENRIAKKMLLEEIKANLSSDED [ATRX 1,260–1,289 M1 (D1260A/D1261A/D1262A/D1263A/D1264A)]	850 nM	–
ATRX I1280Q (protein) SVPVTVDDDDDDNDPENRIAKKMLLEEQKANLSSDEDGSSDDEPEEGKKRTGKQNEENPGDEEAKNQVNSESDS	7350 nM	–
ATRX A1272R (protein) SVPVTVDDDDDDNDPENRIRKKMLLEEIKANLSSDEDGSSDDEPEEGKKRTGKQNEENPGDEEAKNQVNSESDS	1040 nM	–
ATRX L1276R (protein) SVPVTVDDDDDDNDPENRIAKKMRLEEIKANLSSDEDGSSDDEPEEGKKRTGKQNEENPGDEEAKNQVNSESDS	73500 nM	–
DDDDDNAPANRIAKKMLLEEIKANLSSDED [ATRX 1,260–1,289 M2 (D1266A/E1268A)]	1750 nM	–
ATRX L1276Q (protein) SVPVTVDDDDDDNDPENRIAKKMQLEEIKANLSSDEDGSSDDEPEEGKKRTGKQNEENPGDEEAKNQVNSESDS	43300 nM	–
ATRX I1280A (protein) SVPVTVDDDDDDNDPENRIAKKMLLEEAKANLSSDEDGSSDDEPEEGKKRTGKQNEENPGDEEAKNQVNSESDS	400 nM	–
ATRX I1280R (protein) SVPVTVDDDDDDNDPENRIAKKMLLEERKANLSSDEDGSSDDEPEEGKKRTGKQNEENPGDEEAKNQVNSESDS	34800 nM	–
ATRX L1277R (protein) SVPVTVDDDDDDNDPENRIAKKMLREEIKANLSSDEDGSSDDEPEEGKKRTGKQNEENPGDEEAKNQVNSESDS	970 nM	–
DDDDDNDPENRIAKKMLLEEIKANLSSDED (domain or fragment) [DAXX-binding motif of ATRX, ATRX_(1,260–1,289)]	160 nM	–
DAXX helical bundle (DHB) domain, DAXX_(55–144) (domain or fragment, UniProt Q9UER7 55-144, looked up, death-domain associated protein (DAXX), N-terminal DAXX helical bundle (DHB) domain; model of the crystal covers residues 57-141; Limits 55-144 are printed for the mutagenesis panel; Crystals were selenomethionine-substituted; also called DAXXDHB; DAXX DHB) GKKCYKLENEKLFEEFLELCKMQTADHPEVVPFLYNRQQRAHSLFLASAEFCNILSRVLSRARSRPAKLYVYINELCTVLKAHSAKKKLN	–	Kd (ATRX_(1,188–1,326)): 160 nM
